# Experimental data as given in FireProtDB (doi:10.1128/aem.02129-17).
# B1: Lipase, P19515 (parent)
# chain: MVLKQRANYLGFLIVFFTAFLVEAVPIKRQSNSTVDSLPPLIPSRTSAPSSSPSTTDPEAPAMSRNGPLPSDVETKYGMALNATSYPDSVVQAMSIDGGIRAATSQEINELTYYTTLSANSYCRTVIPGATWDCIHCDATEDLKIIKTWSTLIYDTNAMVARGDSEKTIYIVFRGSSSIRNWIADLTFVPVSYPPVSGTKVHKGFLDSYGEVQNELVATVLDQFKQYPSYKVAVTGHSLGGATALLCALDLYQREEGLSSSNLFLYTQGQPRVGDPAFANYVVSTGIPYRRTVNERDIVPHLPPAAFGFLHAGEEYWITDNSPETVQVCTSDLETSDCSNSIVPFTSVLDHLSYFGINTGLCT
# Variants of: B1
# Conditions: Rhizomucor miehei; pH 8; Thermal; DSF; sodium phosphate buffer 50 mM; structure 6QPR; whole UniProt chain shown
Variant,Tm [°C],"change of melting temperature, mutant - wild type (higher = more stable) [°C]"
MVLKQRANYLGFLIVFFTAFLVEAVPIKRQSNSTVDSLPPLIPSRTSAPSSSPSTTDPEAPAMSRNGPLPSDVETKYGMALNATSYPDSVVQAMSIDGGIRAATSQEINELTYYTTLSANSYCRTVIPGATWDCIHCDATEDLKIIKTWSTLIYDTNAMVARGDSEKTIYIVFRGSSSIRNWIADLTFVPVSYPPVSGTKVHKGFLDSYGEVQLELVATVLDQFKQYPSYKVAVTGHSLGGATALLCALDLYQREEGLSSSNLFLYTQGQPRVGDPAFANYVVSTGIPYRRTVNERDIVPHLPPAAFGFLHAGEEYWITDNSPETVQVCTSDLETSDCSNSIVPFTSVLDHLSYFGINTGLCT [N214L],59.2,-7.5
MVLKQRANYLGFLIVFFTAFLVEAVPIKRQSNSTVDSLPPLIPSRTSAPSSSPSTTDPEAPAMSRNGPLPSDVETKYGMALNATSYPDSVVQAMSIDGGIRAATSQEINELTYYTTLSANSYCRTVIPGATWDCIHCDATEDLKIIKTWSTLIYDTNAMVARGDSEKTIYIVFRGSSSIRNWIADLTFVPVSYPPVSGTKVHKGFLDSYGEVQRELVATVLDQFKQYPSYKVAVTGHSLGGATALLCALDLYQREEGLSSSNLFLYTQGQPRVGDPAFANYVVSTGIPYRRTVNERDIVPHLPPAAFGFLHAGEEYWITDNSPETVQVCTSDLETSDCSNSIVPFTSVLDHLSYFGINTGLCT [N214R],59.4,-13.6
MVLKQRANYLGFLIVFFTAFLVEAVPIKRQSNSTVDSLPPLIPSRTSAPSSSPSTTDPEAPAMSRNGPLPSDVETKYGMALNATSYPDSVVQAMSIDGGIRAATSQEINELTYYTTLSANSYCRTVIPGATWDCIHCDATEDLKIIKTWSTLIYDTNAMVARGDSEKTIYIVFRGSSSIRNWIADLTFVPVSYPPVSGTKVHKGFLDSYGEVQNELVATVLDQFKQYPSYKVAVTGHSLGGATALLCALDLYQREEGLSSSNLFLYTQGQPRVGDPAFANYVVSTGIPYRRTVNERDIVPHLPPAAFGFLHAGEEYWITDNSPYTVQVCTSDLETSDCSNSIVPFTSVLDHLSYFGINTGLCT [E324Y],60.8,2.1
MVLKQRANYLGFLIVFFTAFLVEAVPIKRQSNSTVDSLPPLIPSRTSAPSSSPSTTDPEAPAMSRNGPLPSDVETKYGMALNATSYPDSVVQAMSIDGGIRAATSQEINELTYYTTLSANSYCRTVIPGATWDCIHCDATEDLKIIKTWSTLIYDTNAMVARGDSEKTIYIVFRGSSSIRNWIADLTFVPVSYPPVSGTKVHKGFLDSYGEVQNELVATVLDQFKQYPSYKVAVTGHSLGGATALLCALDLYQREEGLSSSNLFLYTQGQPRVGDPAFANYVVSTGIPYRRTVNERDIVPHLPPAAFGFLHAGEEYWITDNSPRTVQVCTSDLETSDCSNSIVPFTSVLDHLSYFGINTGLCT [E324R],59.9,1.2
MVLKQRANYLGFLIVFFTAFLVEAVPIKRQSNSTVDSLPPLIPSRTSAPSSSPSTTDPEAPAMSRNGPLPSDVETKYGMALNATSYPDSVVQAMSIDGGIRAATSQEINELTYYTTLSANSYCRTVIPGATWDCIHCDATEDLKIIKTWSTLIYDTNAMVARGDSEKTIYIVFRGSSSIRNWIADLTFVPVSYPPVSGTKVHKGFLDSYGEVQNELVATVLDQFKQYPSYKVAVTGHSLGGATALLCALDLYQREEGLSSSNLFLYTQGQPRVGDPAFANYVVSTGIPYRRTVNERDIVPHLPPAAFGFLHAGEEYWITDNSPFTVQVCTSDLETSDCSNSIVPFTSVLDHLSYFGINTGLCT [E324F],60.3,1.6
MVLKQRANYLGFLIVFFTAFLVEAVPIKRQSNSTVDSLPPLIPSRTSAPSSSPSTTDPEAPAMSRNGPLPSDVETKYGMALNATSYPDSVVQAMSIDGGIRAATSQEINELTYYTTLSANSYCRTVIPGATWDCIHCDATEDLKIIKTWSTLIYDTNAMVARGDSEKTIYIVFRGSSSIRNWIADLTFVPVSYPPVSGTKVHKGFLDSYGEVQNELVATVLDQFKQYPSYKVAVTGHSLGGATALLCALDLYQREEGLSSSNLFLYTQGQPRVGDPAFANYVVSTGIPYRRTVNERDIVPHLPPAAFGFLHAGEEYWITDNSPPTVQVCTSDLETSDCSNSIVPFTSVLDHLSYFGINTGLCT [E324P],61.2,2.5
MVLKQRANYLGFLIVFFTAFLVEAVPIKRQSNSTVDSLPPLIPSRTSAPSSSPSTTDPEAPAMSRNGPLPSDVETKYGMALNATSYPDSVVQAMSIDGGIRAATSQEINELTYYTTLSANSYCRTVIPGATWDCIHCDATEDLKIIKTWSTLIYDTNAMVARGDSEKTIYIVFRGSSSIRNWIADLTFVPVSYPPVSGTKVHKGFLDSYGEVQNELVATVLDQFKQYPSYKVAVTGHSLGGATALLCALDLYQREEGLSSSNLFLYTQGQPRVGDPAFANYVVSTGIPYRRTVNERDIVPHLPPAAFGFLHAGEEYWITDNSPVTVQVCTSDLETSDCSNSIVPFTSVLDHLSYFGINTGLCT [E324V],64.1,5.4
MVLKQRANYLGFLIVFFTAFLVEAVPIKRQSNSTVDSLPPLIPSRTSAPSSSPSTTDPEAPAMSRNGPLPSDVETKYGMALNATSYPDSVVQAMSIDGGIRAATSQEINELTYYTTLSANSYCRTVIPGATWDCIHCDATEDLKIIKTWSTLIYDTNAMVARGDSEKTIYIVFRGSSSIRNWIADLTFVPVSYPPVSGTKVHKGFLDSYGEVQNELVATVLDQFKQYPSYKVAVTGHSLGGATALLCALDLYQREEGLSSSNLFLYTQGQPRVGDPAFALYVVSTGIPYRRTVNERDIVPHLPPAAFGFLHAGEEYWITDNSPETVQVCTSDLETSDCSNSIVPFTSVLDHLSYFGINTGLCT [N280L],59.3,-10
MVLKQRANYLGFLIVFFTAFLVEAVPIKRQSNSTVDSLPPLIPSRTSAPSSSPSTTDPEAPAMSRNGPLPSDVETKYGMALNATSYPDSVVQAMSIDGGIRAATSQEINELTYYTILSANSYCRTVIPGATWDCIHCDATEDLKIIKTWSTLIYDTNAMVARGDSEKTIYIVFRGSSSIRNWIADLTFVPVSYPPVSGTKVHKGFLDSYGEVQNELVATVLDQFKQYPSYKVAVTGHSLGGATALLCALDLYQREEGLSSSNLFLYTQGQPRVGDPAFANYVVSTGIPYRRTVNERDIVPHLPPAAFGFLHAGEEYWITDNSPETVQVCTSDLETSDCSNSIVPFTSVLDHLSYFGINTGLCT [T116I],61.1,2.4
MVLKQRANYLGFLIVFFTAFLVEAVPIKRQSNSTVDSLPPLIPSRTSAPSSSPSTTDPEAPAMSRNGPLPSDVETKYGMALNATSYPDSVVQAMSIDGGIRAATSQEINELTYYTTLSANSYCRTVIPGATWDCIHCDATEDLKIIKTWSTLIYDTNAMVARGDSEKTIYIVFRGSSSIRNWIADLTFVPVSYPPVSGTKVHKGFLDSYGEVQNELVATVLDQFKQYPSYKVAVTGHSLGGATALLCALDLYQREEGLSSSNLFLYTQGQPRVGDPAFANYVVSTGIPYRRTVNERDIVPHLPPAAFGFLHAGEEYWITDNSPETVQVCTSFLETSDCSNSIVPFTSVLDHLSYFGINTGLCT [D332F],58.2,-3
MVLKQRANYLGFLIVFFTAFLVEAVPIKRQSNSTVDSLPPLIPSRTSAPSSSPSTTDPEAPAMSRNGPLPSDVETKYGMALNATSYPDSVVQAMSIDGGIRAATSQEINELTYYTTLSANSYCRTVIPGATWDCIHCDATEDLKIIKTWSTLIYDTNAMVARGDSEKTIYIVFRGSSSIRNWIADLTFVPVSYPPVSGTKVHKGFLDSYGEVQNELVATVLDQFKQYPSYKVAVTGHSLGGATALLCALDLYQREEGLSSSNLFLYTQGQPRVGDPAFANYVVSTGIPYRRTVNERDIVPHLPPAAFGFLHAGEEYWITDNSPETVQVCTSRLETSDCSNSIVPFTSVLDHLSYFGINTGLCT [D332R],58,-2.8
MVLKQRANYLGFLIVFFTAFLVEAVPIKRQSNSTVDSLPPLIPSRTSAPSSSPSTTDPEAPAMSRNGPLPSDVETKYGMALNATSYPDSVVQAMSIDGGIRAATSQEINELKYYTILSANSYCRTVIPGATWDCIHCDATEDLKIIKTWSTLIYDTNAMVARGDSEKTIYIVFRGSSSIRNWIADLTFVPVSYPPVSGTKVHKGFLDSYGEVQNELVATVLDQFKQYPSYKVAVTGHSLGGATALLCALDLYQREEGLSSSNLFLYTQGQPRVGDPAFANYVVSTGIPYRRTVNERDIVPHLPPAAFGFLHAGEEYWITDNSPITVQVCTSDLETSDCSNSIVPFTSVLDHLSYFGINTGLCT [T112K T116I E324I],68.1,9.4
MVLKQRANYLGFLIVFFTAFLVEAVPIKRQSNSTVDSLPPLIPSRTSAPSSSPSTTDPEAPAMSRNGPLPSDVETKYGMALNATSYPDSVVQAMSIDGGIRAATSQEINELWYYTTLSANSYCRTVIPGATWDCIHCDATEDLKIIKTWSTLIYDTNAMVARGDSEKTIYIVFRGSSSIRNWIADLTFVPVSYPPVSGTKVHKGFLDSYGEVQNELVATVLDQFKQYPSYKVAVTGHSLGGATALLCALDLYQREEGLSSSNLFLYTQGQPRVGDPAFANYVVSTGIPYRRTVNERDIVPHLPPAAFGFLHAGEEYWITDNSPETVQVCTSDLETSDCSNSIVPFTSVLDHLSYFGINTGLCT [T112W],57.8,-2.2
MVLKQRANYLGFLIVFFTAFLVEAVPIKRQSNSTVDSLPPLIPSRTSAPSSSPSTTDPEAPAMSRNGPLPSDVETKYGMALNATSYPDSVVQAMSIDGGIRAATSQEINELTYYTTLSANSYCRTVIPGATWDCIHCDATEDLKIIKTWSTLIYDTNAMVARGDSEKTIYIVFRGSSSIRNWIADLTFVPVSYPPVSGTKVHKGFLDSYGEVQNELVATVLDQFKQYPSYKVAVTGHSLGGATALLCALDLYQREEGLSSSNLFLYTQGQPRVGDPAFANYVVSTGIPYRRTVNERDIVPHLPPAAFGFLHAGEEYWITLNSPETVQVCTSDLETSDCSNSIVPFTSVLDHLSYFGINTGLCT [D320L],58.7,-3.3
MVLKQRANYLGFLIVFFTAFLVEAVPIKRQSNSTVDSLPPLIPSRTSAPSSSPSTTDPEAPAMSRNGPLPSDVETKYGMALNATSYPDSVVQAMSIDGGIRAATSQEINELTYYTTLSANSYCRTVIPGATWDCIHCDATEDLKIIKTWSTLIYDTNAMVARGDSEKTIYIVFRGSSSIRNWIADLTFVPVSYPPVSGTKVHKGFLDYYGEVQNELVATVLDQFKQYPSYKVAVTGHSLGGATALLCALDLYQREEGLSSSNLFLYTQGQPRVGDPAFANYVVSTGIPYRRTVNERDIVPHLPPAAFGFLHAGEEYWITDNSPETVQVCTSDLETSDCSNSIVPFTSVLDHLSYFGINTGLCT [S208Y],58.9,-5.5
MVLKQRANYLGFLIVFFTAFLVEAVPIKRQSNSTVDSLPPLIPSRTSAPSSSPSTTDPEAPAMSRNGPLPSDVETKYGMALNATSYPDSVVQAMSIDGGIRAATSQEINELTYYTTLSANSYCRTVIPGATWDCIHCDATEDLKIIKTWSTLIYDTNAMVARGDSEKTIYIVFRGSSSIRNWIADLTFVPVSYPPVSGTKVHKGFLDFYGEVQNELVATVLDQFKQYPSYKVAVTGHSLGGATALLCALDLYQREEGLSSSNLFLYTQGQPRVGDPAFANYVVSTGIPYRRTVNERDIVPHLPPAAFGFLHAGEEYWITDNSPETVQVCTSDLETSDCSNSIVPFTSVLDHLSYFGINTGLCT [S208F],59.2,-6.4
